Source: the supplement of paper PMC9112550, “Optimization of the antimicrobial peptide Bac7 by deep mutational scanning” (BMC Biology, 2022)
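Also: peptides expressed intracellularly from a pBAD plasmid library in pooled LB shake-flask culture, induced with 0.3% L-arabinose, DNA abundance read by NGS, three biological replicates, DESeq2 with apeglm shrinkage.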

What follows are sequences tested on Escherichia coli TOP10 (assay: shrunken log2 fold change of peptide-encoding DNA abundance (4.5 h post-induction vs induction); higher = less antimicrobial activity (less host growth inhibition)). Conditions: time post-induction: 4.5 h; library: site-saturation at positions 5, 18, 19, 20.
RRIRRRPPRLPRPRPRPAPQPRP was tested, and the “shrunken log2 fold change” value was 1.39. RRIRRRPPRLPRPRPRPAQMPRP was tested, and the “shrunken log2 fold change” value was 0.161. RRIRRRPPRLPRPRPRPARKPRP was tested, and the “shrunken log2 fold change” value was 0.58. RRIRRRPPRLPRPRPRPARMPRP was tested, and the “shrunken log2 fold change” value was 0.173. In the case of RRIRRRPPRLPRPRPRPATEPRP, the “shrunken log2 fold change” value is reported as 0.421. RRIRRRPPRLPRPRPRPATIPRP was tested, and the “shrunken log2 fold change” value was -0.0623. For RRIRRRPPRLPRPRPRPATNPRP, the “shrunken log2 fold change” value was 0.189. With RRIRRRPPRLPRPRPRPAYFPRP the “shrunken log2 fold change” value was 0.401. For RRIRRRPPRLPRPRPRPAYLPRP, the “shrunken log2 fold change” value was -0.35. In the case of RRIRRRPPRLPRPRPRPAYPPRP, the “shrunken log2 fold change” value is reported as 0.0273. With RRIRRRPPRLPRPRPRPCCEPRP the “shrunken log2 fold change” value was 0.122. For RRIRRRPPRLPRPRPRPCDLPRP, the “shrunken log2 fold change” value was 0.0275. RRIRRRPPRLPRPRPRPCDPPRP was tested, and the “shrunken log2 fold change” value was 0.0316. With RRIRRRPPRLPRPRPRPCDRPRP the “shrunken log2 fold change” value was 0.0985. For RRIRRRPPRLPRPRPRPCDVPRP, the “shrunken log2 fold change” value was -0.0838. In the case of RRIRRRPPRLPRPRPRPCEAPRP, the “shrunken log2 fold change” value is reported as 0.127. RRIRRRPPRLPRPRPRPCFVPRP was tested, and the “shrunken log2 fold change” value was 0.0292. RRIRRRPPRLPRPRPRPCGAPRP was tested, and the “shrunken log2 fold change” value was 0.503. With RRIRRRPPRLPRPRPRPCRCPRP the “shrunken log2 fold change” value was -0.00341. In the case of RRIRRRPPRLPRPRPRPCRIPRP, the “shrunken log2 fold change” value is reported as -0.0873. With RRIRRRPPRLPRPRPRPCRWPRP the “shrunken log2 fold change” value was 0.11. For RRIRRRPPRLPRPRPRPCSIPRP, the “shrunken log2 fold change” value was -0.0224. In the case of RRIRRRPPRLPRPRPRPCSMPRP, the “shrunken log2 fold change” value is reported as 0.464. RRIRRRPPRLPRPRPRPCVVPRP was tested, and the “shrunken log2 fold change” value was 0.152. In the case of RRIRRRPPRLPRPRPRPCYCPRP, the “shrunken log2 fold change” value is reported as -0.00192. In the case of RRIRRRPPRLPRPRPRPCYQPRP, the “shrunken log2 fold change” value is reported as -0.16. In the case of RRIRRRPPRLPRPRPRPDAMPRP, the “shrunken log2 fold change” value is reported as 0.336. For RRIRRRPPRLPRPRPRPDCHPRP, the “shrunken log2 fold change” value was 0.619. RRIRRRPPRLPRPRPRPDCQPRP was tested, and the “shrunken log2 fold change” value was -0.00305. RRIRRRPPRLPRPRPRPDDIPRP was tested, and the “shrunken log2 fold change” value was -0.00879. With RRIRRRPPRLPRPRPRPDDRPRP the “shrunken log2 fold change” value was 0.0215. RRIRRRPPRLPRPRPRPDDYPRP was tested, and the “shrunken log2 fold change” value was -0.377. For RRIRRRPPRLPRPRPRPDGPPRP, the “shrunken log2 fold change” value was 0.215. RRIRRRPPRLPRPRPRPDICPRP was tested, and the “shrunken log2 fold change” value was 0.0657. With RRIRRRPPRLPRPRPRPDKIPRP the “shrunken log2 fold change” value was 0.402. In the case of RRIRRRPPRLPRPRPRPDKRPRP, the “shrunken log2 fold change” value is reported as -0.0396. In the case of RRIRRRPPRLPRPRPRPDLRPRP, the “shrunken log2 fold change” value is reported as 0.398. For RRIRRRPPRLPRPRPRPDLYPRP, the “shrunken log2 fold change” value was 0.0296. For RRIRRRPPRLPRPRPRPDMMPRP, the “shrunken log2 fold change” value was -0.137. In the case of RRIRRRPPRLPRPRPRPDNCPRP, the “shrunken log2 fold change” value is reported as -0.113. RRIRRRPPRLPRPRPRPDNDPRP was tested, and the “shrunken log2 fold change” value was 0.104. In the case of RRIRRRPPRLPRPRPRPDPKPRP, the “shrunken log2 fold change” value is reported as 0.304. RRIRRRPPRLPRPRPRPDPMPRP was tested, and the “shrunken log2 fold change” value was 0.326. With RRIRRRPPRLPRPRPRPDQDPRP the “shrunken log2 fold change” value was -0.0033. In the case of RRIRRRPPRLPRPRPRPDRAPRP, the “shrunken log2 fold change” value is reported as 0.322. RRIRRRPPRLPRPRPRPDRCPRP was tested, and the “shrunken log2 fold change” value was 0.00426. In the case of RRIRRRPPRLPRPRPRPDTFPRP, the “shrunken log2 fold change” value is reported as 0.025. For RRIRRRPPRLPRPRPRPDTNPRP, the “shrunken log2 fold change” value was 1.31. RRIRRRPPRLPRPRPRPDVVPRP was tested, and the “shrunken log2 fold change” value was -0.0225. For RRIRRRPPRLPRPRPRPDWAPRP, the “shrunken log2 fold change” value was -0.221. In the case of RRIRRRPPRLPRPRPRPDWNPRP, the “shrunken log2 fold change” value is reported as -0.223. RRIRRRPPRLPRPRPRPDWQPRP was tested, and the “shrunken log2 fold change” value was 0.399. With RRIRRRPPRLPRPRPRPDYWPRP the “shrunken log2 fold change” value was 0.0192. In the case of RRIRRRPPRLPRPRPRPECQPRP, the “shrunken log2 fold change” value is reported as 0.253. With RRIRRRPPRLPRPRPRPEEHPRP the “shrunken log2 fold change” value was 0.107. RRIRRRPPRLPRPRPRPEGNPRP was tested, and the “shrunken log2 fold change” value was -0.0565. RRIRRRPPRLPRPRPRPEICPRP was tested, and the “shrunken log2 fold change” value was 0.181. In the case of RRIRRRPPRLPRPRPRPEIPPRP, the “shrunken log2 fold change” value is reported as 0.163. For RRIRRRPPRLPRPRPRPENEPRP, the “shrunken log2 fold change” value was 0.119. RRIRRRPPRLPRPRPRPENHPRP was tested, and the “shrunken log2 fold change” value was 0.0228. In the case of RRIRRRPPRLPRPRPRPEPSPRP, the “shrunken log2 fold change” value is reported as 0.228. RRIRRRPPRLPRPRPRPEPYPRP was tested, and the “shrunken log2 fold change” value was 0.0302. In the case of RRIRRRPPRLPRPRPRPERWPRP, the “shrunken log2 fold change” value is reported as 0.613. With RRIRRRPPRLPRPRPRPETFPRP the “shrunken log2 fold change” value was -0.0525. RRIRRRPPRLPRPRPRPETRPRP was tested, and the “shrunken log2 fold change” value was 0.644. For RRIRRRPPRLPRPRPRPEVKPRP, the “shrunken log2 fold change” value was 0.418. In the case of RRIRRRPPRLPRPRPRPEWCPRP, the “shrunken log2 fold change” value is reported as 0.17. For RRIRRRPPRLPRPRPRPEWNPRP, the “shrunken log2 fold change” value was 0.471. In the case of RRIRRRPPRLPRPRPRPEYRPRP, the “shrunken log2 fold change” value is reported as -0.0195. For RRIRRRPPRLPRPRPRPFADPRP, the “shrunken log2 fold change” value was -0.0461. In the case of RRIRRRPPRLPRPRPRPFFSPRP, the “shrunken log2 fold change” value is reported as 0.043. For RRIRRRPPRLPRPRPRPFHPPRP, the “shrunken log2 fold change” value was 0.111. In the case of RRIRRRPPRLPRPRPRPFIAPRP, the “shrunken log2 fold change” value is reported as -0.253. RRIRRRPPRLPRPRPRPFITPRP was tested, and the “shrunken log2 fold change” value was -0.257. RRIRRRPPRLPRPRPRPFKDPRP was tested, and the “shrunken log2 fold change” value was -0.11. In the case of RRIRRRPPRLPRPRPRPFKIPRP, the “shrunken log2 fold change” value is reported as -0.00337. RRIRRRPPRLPRPRPRPFLHPRP was tested, and the “shrunken log2 fold change” value was 0.0267. RRIRRRPPRLPRPRPRPFMEPRP was tested, and the “shrunken log2 fold change” value was 0.0534. In the case of RRIRRRPPRLPRPRPRPFMNPRP, the “shrunken log2 fold change” value is reported as 0.0829. RRIRRRPPRLPRPRPRPFMTPRP was tested, and the “shrunken log2 fold change” value was 0.0665. With RRIRRRPPRLPRPRPRPFPQPRP the “shrunken log2 fold change” value was 0.441. For RRIRRRPPRLPRPRPRPFQFPRP, the “shrunken log2 fold change” value was -0.0742. RRIRRRPPRLPRPRPRPFRFPRP was tested, and the “shrunken log2 fold change” value was 0.506. For RRIRRRPPRLPRPRPRPFRLPRP, the “shrunken log2 fold change” value was -0.143. For RRIRRRPPRLPRPRPRPFSNPRP, the “shrunken log2 fold change” value was -0.0243. RRIRRRPPRLPRPRPRPFSQPRP was tested, and the “shrunken log2 fold change” value was -0.422. For RRIRRRPPRLPRPRPRPFTDPRP, the “shrunken log2 fold change” value was -0.0197. For RRIRRRPPRLPRPRPRPFTQPRP, the “shrunken log2 fold change” value was -0.223. RRIRRRPPRLPRPRPRPFTSPRP was tested, and the “shrunken log2 fold change” value was -0.0327. For RRIRRRPPRLPRPRPRPFVAPRP, the “shrunken log2 fold change” value was 0.354. For RRIRRRPPRLPRPRPRPFVPPRP, the “shrunken log2 fold change” value was 0.127. In the case of RRIRRRPPRLPRPRPRPFVQPRP, the “shrunken log2 fold change” value is reported as -0.0288. For RRIRRRPPRLPRPRPRPFVRPRP, the “shrunken log2 fold change” value was -0.174. RRIRRRPPRLPRPRPRPFWCPRP was tested, and the “shrunken log2 fold change” value was -0.18. For RRIRRRPPRLPRPRPRPFYSPRP, the “shrunken log2 fold change” value was -0.307. With RRIRRRPPRLPRPRPRPGCTPRP the “shrunken log2 fold change” value was 0.183. For RRIRRRPPRLPRPRPRPGCWPRP, the “shrunken log2 fold change” value was 0.561. With RRIRRRPPRLPRPRPRPGEAPRP the “shrunken log2 fold change” value was 0.752. In the case of RRIRRRPPRLPRPRPRPGETPRP, the “shrunken log2 fold change” value is reported as 0.309. With RRIRRRPPRLPRPRPRPGGAPRP the “shrunken log2 fold change” value was 0.492. For RRIRRRPPRLPRPRPRPGGFPRP, the “shrunken log2 fold change” value was 0.36. In the case of RRIRRRPPRLPRPRPRPGGIPRP, the “shrunken log2 fold change” value is reported as 0.0225. For RRIRRRPPRLPRPRPRPGGTPRP, the “shrunken log2 fold change” value was 0.245. For RRIRRRPPRLPRPRPRPGHEPRP, the “shrunken log2 fold change” value was 0.00414. For RRIRRRPPRLPRPRPRPGLYPRP, the “shrunken log2 fold change” value was 0.305. RRIRRRPPRLPRPRPRPGNCPRP was tested, and the “shrunken log2 fold change” value was 0.177. For RRIRRRPPRLPRPRPRPGNDPRP, the “shrunken log2 fold change” value was -0.0382. With RRIRRRPPRLPRPRPRPGNFPRP the “shrunken log2 fold change” value was 0.155. For RRIRRRPPRLPRPRPRPGQGPRP, the “shrunken log2 fold change” value was 0.278.
